Measurements from paper PMC7644020.

B1: α5β1 integrin on pKO-β1 fibroblasts, P11688 45-1053; P09055 21-798 (receptor)
chain 1: FNLDAEAPAVLSGPPGSLFGFSVEFYRPGRDGVSVLVGAPKANTSQPGVLQGGAVYVCPWGTSPIQCTTIQFDSKGSRILESSLYSAKGEEPVEYKSLQWFGATVRAHGSSILACAPLYSWRTEKDPQNDPVGTCYLSTENFTRILEYAPCRSDFGSAAGQGYCQGGFSAEFTKTGRVVLGGPGSYFWQGQILSATQEQISESYYPEYLINPVQGQLQTRQASSVYDDSYLGYSVAVGEFSGDDTEDFVAGVPKGNLTYGYVTVLNGSDIHSLYNVSGEQMASYFGYAVAATDTNGDGLDDLLVGAPLLMERTADGRPQEVGRVYIYLQRPAGIDPTPTLTLTGQDEFSRFGSSLTPLGDLDQDGYNDVAIGAPFGGEAQQGVVFIFPGGPGGLSTKPSQVLQPLWAAGRTPDFFGSALRGGRDLDGNGYPDLIVGSFGVDKALVYRGRPIISASASLTIFPSMFNPEERSCSLEGNPVSCINLSFCLNASGKHVPNSIGFEVELQLDWQKQKGGVRRALFLTSKQATLTQTLLIQNGAREDCREMKIYLRNESEFRDKLSPIHIALNFSLDPKAPMDSHGLRPVLHYQSKSRIEDKAQILLDCGEDNICVPDLQLDVYGEKKHVYLGDKNALNLTFHAQNLGEGGAYEAELRVTAPLEAEYSGLVRHPGNFSSLSCDYFAVNQSRQLVCDLGNPMKAGTSLWGGLRFTVPHLQDTKKTIQFDFQILSKNLNNSQSNVVSFPLSVEAQAQVSLNGVSKPEAVIFPVSDWNPQDQPQKEEDLGPAVHHVYELINQGPSSISQGVLELSCPQALEGQQLLYVTKVTGLSNCTSNYTPNSQGLELDPETSPHHLQKREAPGRSSTASGTQVLKCPEAKCFRLRCEFGPLHRQESRSLQLHFRVWAKTFLQREYQPFSLQCEAVYEALKMPYQILPRQLPQKKLQVATAVQWTKAEGSNGVPLWIIILAILFGLLLLGLLIYVLYKLGFFKRSLPYGTAMEKAQLKPPATSDA
chain 2: QTDKNRCLKANAKSCGECIQAGPNCGWCTNTTFLQEGMPTSARCDDLEALKKKGCQPSDIENPRGSQTIKKNKNVTNRSKGMAEKLRPEDITQIQPQQLLLKLRSGEPQKFTLKFKRAEDYPIDLYYLMDLSYSMKDDLENVKSLGTDLMNEMRRITSDFRIGFGSFVEKTVMPYISTTPAKLRNPCTSEQNCTSPFSYKNVLSLTDRGEFFNELVGQQRISGNLDSPEGGFDAIMQVAVCGSLIGWRNVTRLLVFSTDAGFHFAGDGKLGGIVLPNDGQCHLENNVYTMSHYYDYPSIAHLVQKLSENNIQTIFAVTEEFQPVYKELKNLIPKSAVGTLSGNSSNVIQLIIDAYNSLSSEVILENSKLPDGVTINYKSYCKNGVNGTGENGRKCSNISIGDEVQFEISITANKCPNKESETIKIKPLGFTEEVEVVLQFICKCNCQSHGIPASPKCHEGNGTFECGACRCNEGRVGRHCECSTDEVNSEDMDAYCRKENSSEICSNNGECVCGQCVCRKRDNTNEIYSGKFCECDNFNCDRSNGLICGGNGVCRCRVCECYPNYTGSACDCSLDTGPCLASNGQICNGRGICECGACKCTDPKFQGPTCETCQTCLGVCAEHKECVQCRAFNKGEKKDTCAQECSHFNLTKVESREKLPQPVQVDPVTHCKEKDIDDCWFYFTYSVNGNNEAIVHVVETPDCPTGPDIIPIVAGVVAGIVLIGLALLLIWKLLMIIHDRREFAKFEKEKMNAKWDTGENPIYKSAVTTVVNPKYEGK

What was measured:
cFN^ΔRGD (mouse) = cFN^ΔRGD (mouse) (UniProt P11276)

Chain of cFN^RGE (mouse), P11276 (P11276 33-2477): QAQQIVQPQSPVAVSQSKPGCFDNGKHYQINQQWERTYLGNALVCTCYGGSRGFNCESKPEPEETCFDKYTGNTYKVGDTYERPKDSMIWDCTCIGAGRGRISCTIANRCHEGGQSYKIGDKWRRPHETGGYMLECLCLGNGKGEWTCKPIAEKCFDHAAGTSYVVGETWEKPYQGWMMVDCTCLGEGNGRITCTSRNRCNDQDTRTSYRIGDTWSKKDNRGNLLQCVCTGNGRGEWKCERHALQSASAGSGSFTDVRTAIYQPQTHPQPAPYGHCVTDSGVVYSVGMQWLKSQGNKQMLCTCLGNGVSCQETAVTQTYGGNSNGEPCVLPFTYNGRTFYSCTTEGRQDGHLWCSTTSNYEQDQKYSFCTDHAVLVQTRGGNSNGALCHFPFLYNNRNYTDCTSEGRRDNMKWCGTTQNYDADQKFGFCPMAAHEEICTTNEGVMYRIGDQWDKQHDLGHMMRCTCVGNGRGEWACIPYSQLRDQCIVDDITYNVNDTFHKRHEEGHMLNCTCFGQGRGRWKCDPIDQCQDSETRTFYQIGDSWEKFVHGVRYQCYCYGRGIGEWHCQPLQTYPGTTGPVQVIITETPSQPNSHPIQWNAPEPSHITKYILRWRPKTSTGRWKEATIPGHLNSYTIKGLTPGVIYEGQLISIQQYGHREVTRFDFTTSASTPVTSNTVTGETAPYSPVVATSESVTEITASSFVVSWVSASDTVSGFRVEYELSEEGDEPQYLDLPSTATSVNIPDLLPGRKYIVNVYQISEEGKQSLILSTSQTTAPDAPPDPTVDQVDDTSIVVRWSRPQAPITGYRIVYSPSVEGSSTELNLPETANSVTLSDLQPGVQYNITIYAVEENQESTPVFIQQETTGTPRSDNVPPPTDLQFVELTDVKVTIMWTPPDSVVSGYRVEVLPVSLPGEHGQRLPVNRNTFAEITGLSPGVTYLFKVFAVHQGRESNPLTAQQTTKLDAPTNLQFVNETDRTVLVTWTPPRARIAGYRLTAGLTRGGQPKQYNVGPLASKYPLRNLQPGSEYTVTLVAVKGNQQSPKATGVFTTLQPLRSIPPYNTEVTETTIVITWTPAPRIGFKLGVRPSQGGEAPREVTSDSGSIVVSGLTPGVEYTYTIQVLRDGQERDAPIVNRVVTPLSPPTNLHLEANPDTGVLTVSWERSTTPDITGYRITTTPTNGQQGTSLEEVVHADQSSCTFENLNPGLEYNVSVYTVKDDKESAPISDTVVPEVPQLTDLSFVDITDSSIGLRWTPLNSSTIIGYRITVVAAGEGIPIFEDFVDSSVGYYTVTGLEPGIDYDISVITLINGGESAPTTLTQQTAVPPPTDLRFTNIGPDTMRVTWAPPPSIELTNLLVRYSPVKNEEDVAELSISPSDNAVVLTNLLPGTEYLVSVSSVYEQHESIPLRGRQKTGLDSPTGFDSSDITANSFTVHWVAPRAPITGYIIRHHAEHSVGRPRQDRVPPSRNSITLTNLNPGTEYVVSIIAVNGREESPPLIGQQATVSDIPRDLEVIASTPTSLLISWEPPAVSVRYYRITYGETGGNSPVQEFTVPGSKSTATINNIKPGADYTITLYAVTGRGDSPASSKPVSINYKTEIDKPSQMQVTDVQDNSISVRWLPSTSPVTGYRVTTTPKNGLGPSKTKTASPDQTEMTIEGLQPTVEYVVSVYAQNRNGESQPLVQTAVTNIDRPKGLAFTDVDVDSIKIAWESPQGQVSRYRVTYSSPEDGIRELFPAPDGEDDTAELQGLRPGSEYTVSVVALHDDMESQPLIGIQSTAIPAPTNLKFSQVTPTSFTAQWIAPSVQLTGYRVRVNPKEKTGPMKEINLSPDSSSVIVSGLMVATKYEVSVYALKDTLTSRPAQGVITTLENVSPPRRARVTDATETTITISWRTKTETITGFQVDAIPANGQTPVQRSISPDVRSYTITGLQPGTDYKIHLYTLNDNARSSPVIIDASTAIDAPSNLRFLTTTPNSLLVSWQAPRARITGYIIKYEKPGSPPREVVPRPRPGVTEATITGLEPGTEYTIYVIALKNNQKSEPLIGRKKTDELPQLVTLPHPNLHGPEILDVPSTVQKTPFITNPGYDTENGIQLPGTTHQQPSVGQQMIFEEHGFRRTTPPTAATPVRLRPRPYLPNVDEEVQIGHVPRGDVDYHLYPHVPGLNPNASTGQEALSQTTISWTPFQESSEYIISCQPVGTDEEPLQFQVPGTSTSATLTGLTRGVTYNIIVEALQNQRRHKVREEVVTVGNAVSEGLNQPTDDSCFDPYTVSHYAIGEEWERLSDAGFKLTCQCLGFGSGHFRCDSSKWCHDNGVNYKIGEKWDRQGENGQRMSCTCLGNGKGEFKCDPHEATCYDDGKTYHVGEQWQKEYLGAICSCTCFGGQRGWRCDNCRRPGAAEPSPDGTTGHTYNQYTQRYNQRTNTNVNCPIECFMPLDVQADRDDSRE

spreading area of the adherent fibroblasts on the purified cFN variant (cFN^ΔRGD (mouse)) [µm^2] | spreading area of the few adherent fibroblasts on the purified cFN variant (cFN^RGE (mouse), P11276) [µm^2] | Molecule
136 |  | α5β1 integrin on pKO-β1 fibroblasts (from UniProt P11688 45-1053; P09055 21-798) (receptor)
 | 419 | B1
